Data reported in US20200339676A1 (University of California, published 2020).

Columns and labels:
[1] = target: Endogenous NOTCH1 (MDA-MB-231 cell lysate) (UniProt P46531 19-2555, limits assumed); assay: co-immunoprecipitation of endogenous proteins, MDA-MB-231 lysates, Western blot
Protocol: (§1) Notch receptor activation can be regulated through direct interactions with binding partners²⁴. […] To address this possibility, co-immunoprecipitation experiments were performed using MBA-MD-231 cells lysates, which express detectable levels of all four Notch receptors (NOTCH1-4). Endogenous ROBO1 co-immunoprecipitated with NOTCH4, but not […], NOTCH2 or NOTCH3 (FIG. 3H and data not shown). Next, the expression and subcellular localization of the NOTCH4 intracellular domain (N4-ICD) and HES1 was examined in control (Scr) and Robo1 (siR1) knockdown HC11 cells. Expression of Robo1 was inhibited in HC11 cells that were then primed for differentiation as described above. […] This effect was not observed in control Robo1 knockdown cells engineered to overexpress Robo1 (siR1+o/e) or cells treated with the γ-secretase inhibitor GSI (siR1+GSI) (FIGS. 3I-3K).
(§2) Adherent cells were lysed in 1 mL of 1× lysis buffer ([…] NaCl, 10 mM Tris-HCl pH8, […] EDTA, 1 mM sodium orthovanadate) supplemented with 1 percent Igepal NP40 (Sigma), 1 mM phenylmethanesulfonylfluoride (PMSF), 1 mM leupeptin, 1 mM aprotinin, and phosphatase inhibitors (Roche Complete). Cell lysate was incubated for 15 minutes at 4° C. with gentle rocking followed by centrifugation at 12,000 rpms for 10 minutes. […]

[2] = target: Endogenous NOTCH2 (MDA-MB-231 cell lysate) (UniProt Q04721 26-2471, limits assumed); assay: co-immunoprecipitation of endogenous proteins, MDA-MB-231 lysates (data not shown)
Protocol: as §1, §2

[3] = target: Endogenous NOTCH3 (MDA-MB-231 cell lysate) (UniProt Q9UM47 40-2321, limits assumed); assay: as above
Protocol: as §1, §2

Measured: binding result

Chain of Endogenous NOTCH1 (MDA-MB-231 cell lysate) (P46531 19-2555 limits assumed): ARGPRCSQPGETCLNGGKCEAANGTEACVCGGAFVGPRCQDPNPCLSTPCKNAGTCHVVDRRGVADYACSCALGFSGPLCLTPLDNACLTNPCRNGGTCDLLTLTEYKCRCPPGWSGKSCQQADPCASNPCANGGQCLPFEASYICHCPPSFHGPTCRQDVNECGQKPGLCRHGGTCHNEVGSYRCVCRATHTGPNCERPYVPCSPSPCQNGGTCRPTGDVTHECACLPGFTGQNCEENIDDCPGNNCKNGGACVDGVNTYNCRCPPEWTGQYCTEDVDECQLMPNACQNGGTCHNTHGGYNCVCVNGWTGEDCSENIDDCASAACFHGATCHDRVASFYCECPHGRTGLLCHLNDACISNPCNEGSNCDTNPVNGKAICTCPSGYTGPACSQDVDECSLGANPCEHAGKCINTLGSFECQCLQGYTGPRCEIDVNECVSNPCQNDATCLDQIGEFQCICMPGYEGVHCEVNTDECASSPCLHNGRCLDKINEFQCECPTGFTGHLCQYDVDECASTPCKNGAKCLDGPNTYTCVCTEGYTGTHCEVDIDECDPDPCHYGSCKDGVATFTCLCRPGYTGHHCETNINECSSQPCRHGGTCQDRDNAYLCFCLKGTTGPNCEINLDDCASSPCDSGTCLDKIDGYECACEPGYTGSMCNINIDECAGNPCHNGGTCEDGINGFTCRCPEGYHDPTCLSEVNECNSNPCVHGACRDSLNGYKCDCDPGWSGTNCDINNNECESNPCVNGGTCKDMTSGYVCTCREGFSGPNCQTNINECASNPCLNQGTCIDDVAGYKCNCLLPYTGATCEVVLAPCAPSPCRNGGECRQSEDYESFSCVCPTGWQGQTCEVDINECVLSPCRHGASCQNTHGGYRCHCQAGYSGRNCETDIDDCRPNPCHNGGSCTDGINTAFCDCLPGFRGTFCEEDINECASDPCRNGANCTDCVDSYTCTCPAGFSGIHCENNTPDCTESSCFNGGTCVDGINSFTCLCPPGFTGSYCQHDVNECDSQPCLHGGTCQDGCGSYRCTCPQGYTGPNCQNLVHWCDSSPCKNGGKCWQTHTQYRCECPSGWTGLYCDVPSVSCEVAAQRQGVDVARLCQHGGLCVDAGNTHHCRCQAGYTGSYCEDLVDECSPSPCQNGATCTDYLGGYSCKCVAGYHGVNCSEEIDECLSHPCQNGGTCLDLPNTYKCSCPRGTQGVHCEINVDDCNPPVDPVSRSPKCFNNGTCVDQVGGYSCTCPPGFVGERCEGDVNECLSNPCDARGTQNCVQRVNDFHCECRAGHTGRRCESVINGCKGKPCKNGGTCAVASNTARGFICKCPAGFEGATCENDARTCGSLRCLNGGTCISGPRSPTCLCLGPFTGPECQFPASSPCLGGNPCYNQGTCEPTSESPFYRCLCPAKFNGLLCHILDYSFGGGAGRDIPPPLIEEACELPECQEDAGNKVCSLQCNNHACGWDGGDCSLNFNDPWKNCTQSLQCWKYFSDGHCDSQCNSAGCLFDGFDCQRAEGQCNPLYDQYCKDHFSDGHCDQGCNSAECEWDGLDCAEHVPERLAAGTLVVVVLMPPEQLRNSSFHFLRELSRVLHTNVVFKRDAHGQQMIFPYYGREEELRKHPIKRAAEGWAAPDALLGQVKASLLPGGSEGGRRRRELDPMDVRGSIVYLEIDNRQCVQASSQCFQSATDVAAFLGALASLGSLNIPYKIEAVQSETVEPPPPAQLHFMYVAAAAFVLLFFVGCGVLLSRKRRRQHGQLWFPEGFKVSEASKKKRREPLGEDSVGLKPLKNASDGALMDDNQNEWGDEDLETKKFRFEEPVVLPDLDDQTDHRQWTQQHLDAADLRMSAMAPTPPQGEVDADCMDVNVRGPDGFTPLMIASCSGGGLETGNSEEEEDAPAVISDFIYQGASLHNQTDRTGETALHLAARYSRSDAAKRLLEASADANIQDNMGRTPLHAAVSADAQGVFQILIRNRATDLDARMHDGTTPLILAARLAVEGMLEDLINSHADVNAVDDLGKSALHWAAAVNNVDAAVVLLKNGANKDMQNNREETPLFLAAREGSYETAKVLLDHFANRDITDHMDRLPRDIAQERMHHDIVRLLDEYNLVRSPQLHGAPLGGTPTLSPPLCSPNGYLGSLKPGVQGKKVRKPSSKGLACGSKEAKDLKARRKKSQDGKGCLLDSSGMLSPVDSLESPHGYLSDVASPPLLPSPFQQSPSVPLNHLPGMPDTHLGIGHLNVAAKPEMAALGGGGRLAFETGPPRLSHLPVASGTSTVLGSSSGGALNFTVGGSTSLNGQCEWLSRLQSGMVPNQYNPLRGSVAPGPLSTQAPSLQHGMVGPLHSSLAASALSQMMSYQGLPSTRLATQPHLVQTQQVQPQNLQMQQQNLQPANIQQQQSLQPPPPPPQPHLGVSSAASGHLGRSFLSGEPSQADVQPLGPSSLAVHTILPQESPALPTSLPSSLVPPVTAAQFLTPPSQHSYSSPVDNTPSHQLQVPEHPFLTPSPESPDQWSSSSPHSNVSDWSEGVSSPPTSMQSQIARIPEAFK
Chain of Endogenous NOTCH2 (MDA-MB-231 cell lysate) (Q04721 26-2471 limits assumed): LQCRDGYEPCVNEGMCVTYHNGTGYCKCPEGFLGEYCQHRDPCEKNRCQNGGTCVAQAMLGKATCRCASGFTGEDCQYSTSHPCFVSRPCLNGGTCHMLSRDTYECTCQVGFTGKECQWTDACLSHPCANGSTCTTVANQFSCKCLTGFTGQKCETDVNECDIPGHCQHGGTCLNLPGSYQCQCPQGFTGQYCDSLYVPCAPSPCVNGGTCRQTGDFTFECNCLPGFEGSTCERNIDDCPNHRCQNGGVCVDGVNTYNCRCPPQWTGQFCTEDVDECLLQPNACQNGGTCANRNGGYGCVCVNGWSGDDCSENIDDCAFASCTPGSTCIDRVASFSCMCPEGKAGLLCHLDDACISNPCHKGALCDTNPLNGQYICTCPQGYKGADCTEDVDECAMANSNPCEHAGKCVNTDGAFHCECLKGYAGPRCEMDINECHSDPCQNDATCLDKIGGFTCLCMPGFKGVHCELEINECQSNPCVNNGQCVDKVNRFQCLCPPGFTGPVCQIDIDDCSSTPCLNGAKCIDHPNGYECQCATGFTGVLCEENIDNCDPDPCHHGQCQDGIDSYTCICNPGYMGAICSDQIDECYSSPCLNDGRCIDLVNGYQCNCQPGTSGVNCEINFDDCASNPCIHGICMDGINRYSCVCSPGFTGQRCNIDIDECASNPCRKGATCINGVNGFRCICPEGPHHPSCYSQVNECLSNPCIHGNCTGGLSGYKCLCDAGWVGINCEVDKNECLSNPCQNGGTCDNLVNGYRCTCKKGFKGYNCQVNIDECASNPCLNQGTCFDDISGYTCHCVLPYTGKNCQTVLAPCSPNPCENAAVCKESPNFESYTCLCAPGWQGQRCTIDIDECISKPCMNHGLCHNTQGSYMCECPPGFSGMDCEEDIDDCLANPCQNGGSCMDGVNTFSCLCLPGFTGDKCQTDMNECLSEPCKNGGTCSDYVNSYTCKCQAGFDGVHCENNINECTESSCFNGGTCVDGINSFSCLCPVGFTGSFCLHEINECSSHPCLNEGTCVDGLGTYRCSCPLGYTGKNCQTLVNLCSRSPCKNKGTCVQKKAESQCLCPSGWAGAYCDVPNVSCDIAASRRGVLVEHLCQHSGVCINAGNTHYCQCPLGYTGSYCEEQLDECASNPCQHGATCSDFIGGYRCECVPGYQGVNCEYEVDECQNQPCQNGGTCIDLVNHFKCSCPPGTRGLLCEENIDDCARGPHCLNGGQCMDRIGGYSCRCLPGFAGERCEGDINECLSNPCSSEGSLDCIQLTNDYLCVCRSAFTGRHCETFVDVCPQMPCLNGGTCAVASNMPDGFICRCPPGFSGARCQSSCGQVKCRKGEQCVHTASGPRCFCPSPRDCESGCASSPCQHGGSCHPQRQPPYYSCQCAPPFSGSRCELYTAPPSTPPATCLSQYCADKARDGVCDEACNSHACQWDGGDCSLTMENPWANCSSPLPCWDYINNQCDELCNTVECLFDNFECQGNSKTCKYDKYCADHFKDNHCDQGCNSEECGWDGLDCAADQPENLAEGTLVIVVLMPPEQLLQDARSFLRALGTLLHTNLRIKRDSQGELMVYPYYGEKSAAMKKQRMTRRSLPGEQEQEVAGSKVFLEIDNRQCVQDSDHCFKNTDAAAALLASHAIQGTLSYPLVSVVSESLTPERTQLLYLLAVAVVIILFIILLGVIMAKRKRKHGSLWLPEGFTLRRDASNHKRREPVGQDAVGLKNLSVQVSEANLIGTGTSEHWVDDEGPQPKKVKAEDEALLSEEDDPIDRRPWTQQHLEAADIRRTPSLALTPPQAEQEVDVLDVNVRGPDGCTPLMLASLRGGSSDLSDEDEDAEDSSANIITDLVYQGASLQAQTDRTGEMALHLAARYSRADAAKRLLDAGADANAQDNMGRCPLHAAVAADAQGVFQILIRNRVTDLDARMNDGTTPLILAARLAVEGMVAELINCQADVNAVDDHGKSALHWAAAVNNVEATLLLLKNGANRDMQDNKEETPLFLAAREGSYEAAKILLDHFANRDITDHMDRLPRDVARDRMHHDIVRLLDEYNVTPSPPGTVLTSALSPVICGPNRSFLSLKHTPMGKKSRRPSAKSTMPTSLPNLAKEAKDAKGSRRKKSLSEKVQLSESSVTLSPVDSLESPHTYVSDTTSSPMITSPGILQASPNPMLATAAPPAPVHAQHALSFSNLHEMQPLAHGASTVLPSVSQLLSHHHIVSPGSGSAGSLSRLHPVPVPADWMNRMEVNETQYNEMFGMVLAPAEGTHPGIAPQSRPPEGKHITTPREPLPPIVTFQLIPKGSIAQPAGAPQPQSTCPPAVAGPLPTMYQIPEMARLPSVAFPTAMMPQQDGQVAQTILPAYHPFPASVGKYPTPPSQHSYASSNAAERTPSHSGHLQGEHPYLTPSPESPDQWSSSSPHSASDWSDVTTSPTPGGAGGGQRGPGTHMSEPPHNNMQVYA

B1: Endogenous ROBO1 (MDA-MB-231 and HEK293 cell lysates) (receptor, UniProt Q9Y6N7 26-1651, looked up)
chain: QLIPDPEDVERGNDHGTPIPTSDNDDNSLGYTGSRLRQEDFPPRIVEHPSDLIVSKGEPATLNCKAEGRPTPTIEWYKGGERVETDKDDPRSHRMLLPSGSLFFLRIVHGRKSRPDEGVYVCVARNYLGEAVSHNASLEVAILRDDFRQNPSDVMVAVGEPAVMECQPPRGHPEPTISWKKDGSPLDDKDERITIRGGKLMITYTRKSDAGKYVCVGTNMVGERESEVAELTVLERPSFVKRPSNLAVTVDDSAEFKCEARGDPVPTVRWRKDDGELPKSRYEIRDDHTLKIRKVTAGDMGSYTCVAENMVGKAEASATLTVQEPPHFVVKPRDQVVALGRTVTFQCEATGNPQPAIFWRREGSQNLLFSYQPPQSSSRFSVSQTGDLTITNVQRSDVGYYICQTLNVAGSIITKAYLEVTDVIADRPPPVIRQGPVNQTVAVDGTFVLSCVATGSPVPTILWRKDGVLVSTQDSRIKQLENGVLQIRYAKLGDTGRYTCIASTPSGEATWSAYIEVQEFGVPVQPPRPTDPNLIPSAPSKPEVTDVSRNTVTLSWQPNLNSGATPTSYIIEAFSHASGSSWQTVAENVKTETSAIKGLKPNAIYLFLVRAANAYGISDPSQISDPVKTQDVLPTSQGVDHKQVQRELGNAVLHLHNPTVLSSSSIEVHWTVDQQSQYIQGYKILYRPSGANHGESDWLVFEVRTPAKNSVVIPDLRKGVNYEIKARPFFNEFQGADSEIKFAKTLEEAPSAPPQGVTVSKNDGNGTAILVSWQPPPEDTQNGMVQEYKVWCLGNETRYHINKTVDGSTFSVVIPFLVPGIRYSVEVAASTGAGSGVKSEPQFIQLDAHGNPVSPEDQVSLAQQISDVVKQPAFIAGIGAACWIILMVFSIWLYRHRKKRNGLTSTYAGIRKVPSFTFTPTVTYQRGGEAVSSGGRPGLLNISEPAAQPWLADTWPNTGNNHNDCSISCCTAGNGNSDSNLTTYSRPADCIANYNNQLDNKQTNLMLPESTVYGDVDLSNKINEMKTFNSPNLKDGRFVNPSGQPTPYATTQLIQSNLSNNMNNGSGDSGEKHWKPLGQQKQEVAPVQYNIVEQNKLNKDYRANDTVPPTIPYNQSYDQNTGGSYNSSDRGSSTSGSQGHKKGARTPKVPKQGGMNWADLLPPPPAHPPPHSNSEEYNISVDESYDQEMPCPVPPARMYLQQDELEEEEDERGPTPPVRGAASSPAAVSYSHQSTATLTPSPQEELQPMLQDCPEETGHMQHQPDRRRQPVSPPPPPRPISPPHTYGYISGPLVSDMDTDAPEEEEDEADMEVAKMQTRRLLLRGLEQTPASSVGDLESSVTGSMINGWGSASEEDNISSGRSSVSSSDGSFFTDADFAQAVAAAAEYAGLKVARRQMQDAAGRRHFHASQCPRPTSPVSTDSNMSAAVMQKTRPAKKLKHQPGHLRRETYTDDLPPPPVPPPAIKSPTAQSKTQLEVRPVVVPKLPSMDARTDRSSDRKGSSYKGREVLDGRQVVDMRTNPGDPREAQEQQNDGKGRGNKAAKRDLPPAKTHLIQEDILPYCRPTFPTSNNPRDPSSSSSMSSRGSGSRQREQANVGRRNIAEMQVLGGYERGEDNNEELEETES
notes: Endogenous full-length receptor in detergent cell lysate, immunoprecipitated with an anti-ROBO1 antibody; Human is inferred from the cell lines; also called R1
no binding: all assays above
